The values below come from publication PMC9352680, “A comprehensive thermodynamic model for RNA binding by the Saccharomyces cerevisiae Pumilio protein PUF4”.

T1: PUF4 RNA-binding domain (Saccharomyces cerevisiae, UniProt P25339 537-888)
T1 sequence: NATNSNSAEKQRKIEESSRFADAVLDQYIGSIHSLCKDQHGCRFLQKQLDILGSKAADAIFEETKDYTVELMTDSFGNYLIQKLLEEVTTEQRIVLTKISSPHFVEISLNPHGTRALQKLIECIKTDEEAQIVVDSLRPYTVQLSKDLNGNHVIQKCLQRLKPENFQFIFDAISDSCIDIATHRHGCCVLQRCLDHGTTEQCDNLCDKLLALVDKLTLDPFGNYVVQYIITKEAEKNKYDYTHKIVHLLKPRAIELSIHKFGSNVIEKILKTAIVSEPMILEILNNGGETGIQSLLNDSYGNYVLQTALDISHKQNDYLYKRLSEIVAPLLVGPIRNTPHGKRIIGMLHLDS

B1: Ic_S4_P5E.1_K5.1_C5.1_H5.1_A5.1_F5.1_[A10G]_T5.1 (ssRNA)
RNA: UUUGACAACUGAUCGUUCUUUCUUGUAUUAUUGUUCUUUCUCGAUCAGUUGUCUUU
B2: Ia_S4_P5E.1_K5.1_C5.1_H5.1_[T1A]_A5.1_F5.1_T5.1 (ssRNA)
RNA: B1 RNA with U24A, G33A

By Kd is commonly meant the constant that tells how readily two partners part at equilibrium. Low values mean higher affinity, high ones lower affinity.

Changes are numbered by the printed parent chain. Numbers in names are those of the source. Some results are limits rather than exact numbers.

The target in the data set is T1, PUF4 RNA-binding domain. The experiment in a line: Mg; RNA-MaP; 20 mM Na-HEPES pH 7.4, 30 mM KOAc, 0.75 mM MgCl2, 0.1% Tween-20, 5% glycerol, 0.1 mg/mL BSA, 2 mM DTT; 25 C; 0.0125-409.6 nM protein. The following applies: tags: N-His6-TEV cleaved; C-SNAP kept, Cy3B-labelled; label: tethered on chip by stalled RNA polymerase.
The molecule UCUCUUUGUACCUCUCUCUU (ssRNA) [Ic_S1_P3E.1_K3.1_C3.1_H3.1_A3.1_[T5C]_[A6C]_F3.1_[A8C]_T3.1] had a dissociation constant (Kd) of 157 nM.

Turning to B1, the Kd is 11.8 nM.

Molecule B2 gave an equilibrium dissociation constant (Kd) above 2300 nM.

Consider UCUCUUUGUACUGGUCUCUU (ssRNA) [Ic_S1_P3E.1_K3.1_C3.1_H3.1_A3.1_[T5C]_[A6T]_F3.1_[T7G]_[A8G]_T3.1], for which binding was put at a Kd of 1060 nM.

For the molecule UCUCUUUGUACUAUUCUCUU (ssRNA) [Ic_S1_P3E.1_K3.1_C3.1_H3.1_A3.1_[T5C]_[A6T]_F3.1_[T7A]_[A8T]_T3.1], the Kd was found to be 9.51 nM.

Molecule UCUCUUUGUACCCAUCUCUU (ssRNA) [Ic_S1_P3E.1_K3.1_C3.1_H3.1_A3.1_[T5C]_[A6C]_F3.1_[T7C]_T3.1] showed a dissociation constant (Kd) of 429 nM.

Take UCUCUUUGUACCGUUCUCUU (ssRNA) [Ic_S1_P3E.1_K3.1_C3.1_H3.1_A3.1_[T5C]_[A6C]_F3.1_[T7G]_[A8T]_T3.1]: the Kd is 391 nM.

UCUCUUUGUACCACUCUCUU (ssRNA) [Ic_S1_P3E.1_K3.1_C3.1_H3.1_A3.1_[T5C]_[A6C]_F3.1_[T7A]_[A8C]_T3.1]: binding was characterised by a dissociation constant (Kd) of 192 nM.

UCUCUUUGUACGUGUCUCUU (ssRNA) [Ic_S1_P3E.1_K3.1_C3.1_H3.1_A3.1_[T5C]_[A6G]_F3.1_[A8G]_T3.1] came in with a Kd of 492 nM.

In turn, UCUCUUUGUACGUUUCUCUU (ssRNA) [Ic_S1_P3E.1_K3.1_C3.1_H3.1_A3.1_[T5C]_[A6G]_F3.1_[A8T]_T3.1] had a Kd of 40.7 nM.

The molecule UCUCUUUGUACGAAUCUCUU (ssRNA) [Ic_S1_P3E.1_K3.1_C3.1_H3.1_A3.1_[T5C]_[A6G]_F3.1_[T7A]_T3.1] displayed a dissociation constant (Kd) of 891 nM.

In turn, UCUCUUUGUACUAAUCUCUU (ssRNA) [Ic_S1_P3E.1_K3.1_C3.1_H3.1_A3.1_[T5C]_[A6T]_F3.1_[T7A]_T3.1] gave a Kd of 77.4 nM.

UCUCUUUGUACCUGUCUCUU (ssRNA) [Ic_S1_P3E.1_K3.1_C3.1_H3.1_A3.1_[T5C]_[A6C]_F3.1_[A8G]_T3.1] returned a Kd of 115 nM.

With UCUCUUUGUACUCUUCUCUU (ssRNA) [Ic_S1_P3E.1_K3.1_C3.1_H3.1_A3.1_[T5C]_[A6T]_F3.1_[T7C]_[A8T]_T3.1], binding was put at a Kd of 44.3 nM.

Molecule UCUCUUUGUACCCCUCUCUU (ssRNA) [Ic_S1_P3E.1_K3.1_C3.1_H3.1_A3.1_[T5C]_[A6C]_F3.1_[T7C]_[A8C]_T3.1] gave a Kd of 953 nM.

In turn, UCUCUUUGUACUAGUCUCUU (ssRNA) [Ic_S1_P3E.1_K3.1_C3.1_H3.1_A3.1_[T5C]_[A6T]_F3.1_[T7A]_[A8G]_T3.1] showed a Kd of 524 nM.

The molecule UCUCUUUGUACCCUUCUCUU (ssRNA) [Ic_S1_P3E.1_K3.1_C3.1_H3.1_A3.1_[T5C]_[A6C]_F3.1_[T7C]_[A8T]_T3.1] returned a Kd of 59.5 nM.

UCUCUUUGUACCAUUCUCUU (ssRNA) [Ic_S1_P3E.1_K3.1_C3.1_H3.1_A3.1_[T5C]_[A6C]_F3.1_[T7A]_[A8T]_T3.1] registered a Kd of 8.04 nM.

In the case of UCUCUUUGUACUUGUCUCUU (ssRNA) [Ic_S1_P3E.1_K3.1_C3.1_H3.1_A3.1_[T5C]_[A6T]_F3.1_[A8G]_T3.1], the Kd was 112 nM.

Take UCUCUUUGUACUGCUCUCUU (ssRNA) [Ic_S1_P3E.1_K3.1_C3.1_H3.1_A3.1_[T5C]_[A6T]_F3.1_[T7G]_[A8C]_T3.1]: the Kd is 842 nM.

UCUCUUUGUACCUUUCUCUU (ssRNA) [Ic_S1_P3E.1_K3.1_C3.1_H3.1_A3.1_[T5C]_[A6C]_F3.1_[A8T]_T3.1] had a Kd of 34 nM.

In turn, UCUCUUUGUACUACUCUCUU (ssRNA) [Ic_S1_P3E.1_K3.1_C3.1_H3.1_A3.1_[T5C]_[A6T]_F3.1_[T7A]_[A8C]_T3.1] showed a Kd of 349 nM.

The molecule UCUCUUUGUACCGCUCUCUU (ssRNA) [Ic_S1_P3E.1_K3.1_C3.1_H3.1_A3.1_[T5C]_[A6C]_F3.1_[T7G]_[A8C]_T3.1] returned a Kd of 989 nM.

Consider UCUCUUUGUACUCCUCUCUU (ssRNA) [Ic_S1_P3E.1_K3.1_C3.1_H3.1_A3.1_[T5C]_[A6T]_F3.1_[T7C]_[A8C]_T3.1], for which binding was put at a Kd of 384 nM.

UCUCUUUGUACUCAUCUCUU (ssRNA) [Ic_S1_P3E.1_K3.1_C3.1_H3.1_A3.1_[T5C]_[A6T]_F3.1_[T7C]_T3.1] came in with a dissociation constant (Kd) of 445 nM.
